Assay results from article PMC2663784.
Values joined by “and” are separate entries in the source; they are usually repeats but may differ in a detail not shown here. Equal entries are not always repeated.

Molecular target: humanized 3S193 VL-0-VH scFv multimer (humanized (mouse CDRs on human frameworks))
Assay: SEC

stoichiometry N: 3 and 4
B1: humanized 3S193 VL-0-VH scFv multimer (scFv, V domains shown)
VH: EVQLVESGGGVVQPGRSLRLSCSTSGFTFSDYYMYWVRQAPGKGLEWVAYMSNVGAITDYPDTVKGRFTISRDNSKNTLFLQMDSLRPEDTGVYFCARGTRDGSWFAYWGQGTPVTVSS
VL: DIQMTQSPSSLSASVGDRVTITCRSSQRIVHSNGNTYLEWYQQTPGKAPKLLIYKVSNRFSGVPSRFSGSGSGTDFTFTISSLQPEDIATYYCFQGSHVPFTFGQGTKLQIT
